Literature values in article PMC5408752.

Assays:
[1] = molecular target: nisin (Lactococcus lactis) (UniProt P13068); assay: NMR titration
[2] = molecular target: NisA precursor (Lactococcus lactis) (UniProt P13068); assay: isothermal titration calorimetry
[3] = molecular target: NisA leader leader (Lactococcus lactis) (UniProt P13068); assay: isothermal titration calorimetry

Kd [1]	Kd [2]	Kd [3]	Substance
22 µM	–	–	NisI CTD (from UniProt P42708)
–	2 µM	3.8 µM	NisC (from UniProt Q03202)
